Assay results as given in article PMC314469, “Protein Interaction Networks by Proteome Peptide Scanning” (PLoS Biology, 2004).

T1: amphyphisin SH3 (AMPH_HUMAN), P49418
T1 chain: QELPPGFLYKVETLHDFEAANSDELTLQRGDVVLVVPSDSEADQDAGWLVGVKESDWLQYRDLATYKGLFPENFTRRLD


Experiments:
[1] = target: endophilin SH3 (SH3G2_HUMAN), Q99962; test: SPOT array
[2] = target: T1, amphyphisin SH3 (AMPH_HUMAN), P49418; test: SPOT array

normalised SPOT signal, Boehringer light units (BLU); mean over the file's lines of this peptide [1] | normalised SPOT signal, Boehringer light units (BLU); mean over the file's lines of this peptide [2] | Binder
258 | 247 | VEPPPRRPMSQKSE [Q96MR0 151-164]
98.9 | 42.3 | VSARPEKPPGQVTR [P35475 539-553]
51.8 | 7.4 | VDNTIKRPNPAPGT [Q9UQ13 68-81]
609 | 75.4 | VAEPPPRPPPPPPP [Q9NZM4 1290-1304]
2740 | 56.8 | VKKIPKKPPAPDPF [Q9UQN5 1344-1358]
26.9 | 28.3 | SGKAFRRPSDLFRH [Q9NPV1 31-44]
32 | 30.3 | VKLKIKRPYGRKSQ [O60281 820-833]
89.9 | 18.2 | VATDLGRPARSATG [Q96JQ0 2039-2052]
13.7 | 12.9 | VFLSFRRPFWREEH [Q96RQ9 355-368]
79.6 | 51.3 | VEGSPFRPPSHSFS [O95359 85-99]
254 | 1280 | VSPGPIRPIRQISD [Q14183 21-34]
49.9 | 638 | VEHVPGRPVRNPQS [P25391 53-66]
189 | 119 | VSRDITRPPKTVAT [Q14425 672-685]
43.5 | 26.8 | VETSLRRPQDKDAK [P36776 780-793]
200 | 1490 | SGVRFHRPYRLLMH [Q9NT61 332-345]
15 | 23.3 | SGRHFRRPDPSREP [Q9H9Q6 68-81]
64.9 | 28 | VHLKLRRPVTVPAG [Q9BT99 240-253]
430 | 2520 | VASGPSRPGREEHI [Q04671 237-250]
281 | 72.4 | VFRVLRRPQEFVNR [Q9ULB8 127-140]
112 | 320 | VGTELLRPLRGLLS [Q9NX26 97-110]
390 | 11700 | VGKAFIRPFREHHI [Q9GZT0 109-122]
267 | 32.8 | VAWHPKRPLLAFAS [Q96J01 313-326]
1040 | 47.2 | VARSPKRPAWGSRR [Q9P1W0 38-51]
3650 | 30 | VSRLPKRPEPSPPL [Q15515 17-30]
269 | 7280 | VGASLTRPSRKLRW [Q92502 483-496]

Further lines, the binder ahead of its results:

Binder | normalised SPOT signal, Boehringer light units (BLU); mean over the file's lines of this peptide [1] | normalised SPOT signal, Boehringer light units (BLU); mean over the file's lines of this peptide [2]
VEGILKRPPDEQRL [Q15370 31-44] | 20.6 | 32.4
VGTLPSKPPFRFGQ [O60318 21-35] | 498 | 169
VFTPLRRPGMLVPK [Q9UIW6 20-33] | 187 | 98
SGPPPLRPPLPAAA [P22004 21-35] | 4710 | 58.3
VSLALVRPSKMGLS [O15403 466-479] | 9.5 | 53.1
VESILKRPSSAITR [Q9NPG6 312-325] | 31.6 | 27.1
VGDVLRRPSKDEPL [Q14571 2500-2513] | 115 | 26
VSPGPIRPIKQISD [Q14184 22-35] | 344 | 126
VHGDIFRPPRKGML [Q99805 351-364] | 97.6 | 4010
VEELLRRPMDSLDS [P42229 764-777] | 46.2 | 30.5
VKIPPKRPPRKHIV [Q8WVK0 107-121] | 14900 | 17500
VGASLTRPNRRLRW [Q9Y3M8 456-469] | 177 | 1960
VGIQLRRPLFQKVT [P21709 133-146] | 77.8 | 36.6
TYTAPPRPPKKREY [Q9P1Z0 111-124] | 166 | 189
TYSLLRRPFRQVLA [Q96P69 293-306] | 715 | 691
VAPRPARPPGDLGP [O00144 174-188] | 630 | 151
VFQAPRRPGIGTVG [Q9UL18 20-33] | 728 | 155
